The numbers were not newly measured in publication PMC4643947, which cites them from elsewhere.

Like-named read-outs stand apart in the source and are kept apart here.

For data set [1], the target named is Nrf2 14mer peptide (Homo sapiens).
Data set [2] concerns the target p62 (Homo sapiens) (UniProt Q13501).
The target is the same in data set [3]. This is another data set of the same source.
Data set [4] addresses Nrf2 10mer peptide (Homo sapiens).

Turning to Keap1 (from UniProt Q14145), the Kd in data set [1] was 61.9 nM; with p62 (Homo sapiens) [2], 118 nM; with p62 (Homo sapiens) [3] it was 2000 nM; in data set [4], 30.1 nM.

For orientation: Kd means the concentration at which binding is half-saturated.
